Data: article PMC5345052, “Auto-phosphorylation Represses Protein Kinase R Activity” (Scientific Reports, 2017)

B1: full-length PKR with N-terminal split Venus V1 tag [human] / truncated PKR kinase domain with N-terminal split Venus V2 tag [human] (parent)
chain 1: MAGDLSAGFFMEELNTYRQKQGVVLKYQELPNSGPPHDRRFTFQVIIDGREFPEGEGRSKKEAKNAAAKLAVEILNKEKKAVSPLLLTTTNSSEGLSMGNYIGLINRIAQKKRLTVNYEQCASGVHGPEGFHYKCKMGQKEYSIGTGSTKQEAKQLAAKLAYLQILSEETSVKSDYLSSGSFATTCESQSNSLVTSTLASESSSEGDFSADTSEINSNSDSLNSSSLLMNGLRNNQRKAKRSLAPRFDLPDMKETKYTVDKRFGMDFKEIELIGSGGFGQVFKAKHRIDGKTYVIKRVKYNNEKAEREVKALAKLDHVNIVHYNGCWDGFDYDPETSDDSLESSDYDPENSKNSSRSKTKCLFIQMEFCDKGTLEQWIEKRRGEKLDKVLALELFEQITKGVDYIHSKKLIHRDLKPSNIFLVDTKQVKIGDFGLVTSLKNDGKRTRSKGTLRYMSPEQISSQDYGKEVDLYALGLILAELLHVCDTAFETSKFFTDLRDGIISDIFDKKEKTLLQKLLSKKPEDRPNTSEILRTLTVWKKSPEKNERHTC
chain 2: TVDKRFGMDFKEIELIGSGGFGQVFKAKHRIDGKTYVIKRVKYNNEKAEREVKALAKLDHVNIVHYNGCWDGFDYDPETSDDSLESSDYDPENSKNSSRSKTKCLFIQMEFCDKGTLEQWIEKRRGEKLDKVLALELFEQITKGVDYIHSKKLIHRDLKPSNIFLVDTKQVKIGDFGLVTSLKNDGKRTRSKGTLRYMSPEQISSQDYGKEVDLYALGLILAELLHVCDTAFETSKFFTDLRDGIISDIFDKKEKTLLQKLLSKKPEDRPNTSEILRTLTVWKKSPEKNERHTC

Variants of: B1
Assay: split Venus fluorescence complementation in HEK293 cells
[1] = 20 ng/well of each construct, 5 μM of 2AP, n = 3, read off a plot
[2] = 20 ng/well of each construct, n = 7, read off a plot

Variant	response [1]	response [2]	response (20 ng/well of full-length PKR and 30 ng/well of the truncated KD, n = 7, read off a plot)
chain 1 MAGDLSAGFFMEELNTYRQKQGVVLKYQELPNSGPPRDRRFTFQVIIDGREFPEGEGRSKKEAKNAAAKLAVEILNKEKKAVSPLLLTTTNSSEGLSMGNYIGLINRIAQKKRLTVNYEQCASGVHGPEGFHYKCKMGQKEYSIGTGSTKQEAKQLAAKLAYLQILSEETSVKSDYLSSGSFATTCESQSNSLVTSTLASESSSEGDFSADTSEINSNSDSLNSSSLLMNGLRNNQRKAKRSLAPRFDLPDMKETKYTVDKRFGMDFKEIELIGSGGFGQVFKAKHRIDGKTYVIKRVKYNNEKAEREVKALAKLDHVNIVHYNGCWDGFDYDPETSDDSLESSDYDPENSKNSSRSKTKCLFIQMEFCDKGTLEQWIEKRRGEKLDKVLALELFEQITKGVDYIHSKKLIHRDLKPSNIFLVDTKQVKIGDFGLVTSLKNDGKRTRSKGTLRYMSPEQISSQDYGKEVDLYALGLILAELLHVCDTAFETSKFFTDLRDGIISDIFDKKEKTLLQKLLSKKPEDRPNTSEILRTLTVWKKSPEKNERHTC [chain 1 H37R]	2.7	2.5	–
chain 2 TVDKRFGMDFKEIELIGSGGFGQVFKAKHRIDGKTYVIRRVKYNNEKAEREVKALAKLDHVNIVHYNGCWDGFDYDPETSDDSLESSDYDPENSKNSSRSKTKCLFIQMEFCDKGTLEQWIEKRRGEKLDKVLALELFEQITKGVDYIHSKKLIHRDLKPSNIFLVDTKQVKIGDFGLVTSLKNDGKRTRSKGTLRYMSPEQISSQDYGKEVDLYALGLILAELLHVCDTAFETSKFFTDLRDGIISDIFDKKEKTLLQKLLSKKPEDRPNTSEILRTLTVWKKSPEKNERHTC [chain 2 K39R]	–	–	4.2
chain 1 MAGDLSAGFFMEELNTYRQKQGVVLKYQELPNEGPPRDRRFEFQVIIDGREFPEGEGRSKKEAKNAAAKLAVEILNKEKKAVSPLLLTTTNSSEGLSMGNYIGLINRIAQKKRLTVNYEQCASGVHGPEGFHYKCKMGQKEYSIGTGSTKQEAKQLAAKLAYLQILSEETSVKSDYLSSGSFATTCESQSNSLVTSTLASESSSEGDFSADTSEINSNSDSLNSSSLLMNGLRNNQRKAKRSLAPRFDLPDMKETKYTVDKRFGMDFKEIELIGSGGFGQVFKAKHRIDGKTYVIKRVKYNNEKAEREVKALAKLDHVNIVHYNGCWDGFDYDPETSDDSLESSDYDPENSKNSSRSKTKCLFIQMEFCDKGTLEQWIEKRRGEKLDKVLALELFEQITKGVDYIHSKKLIHRDLKPSNIFLVDTKQVKIGDFGLVTSLKNDGKRTRSKGTLRYMSPEQISSQDYGKEVDLYALGLILAELLHVCDTAFETSKFFTDLRDGIISDIFDKKEKTLLQKLLSKKPEDRPNTSEILRTLTVWKKSPEKNERHTC [chain 1 S33E H37R T42E]	2.9	2.5	–
chain 1 MAGDLSAGFFMEELNTYRQKQGVVLKYQELPNAGPPRDRRFAFQVIIDGREFPEGEGRSKKEAKNAAAKLAVEILNKEKKAVSPLLLTTTNSSEGLSMGNYIGLINRIAQKKRLTVNYEQCASGVHGPEGFHYKCKMGQKEYSIGTGSTKQEAKQLAAKLAYLQILSEETSVKSDYLSSGSFATTCESQSNSLVTSTLASESSSEGDFSADTSEINSNSDSLNSSSLLMNGLRNNQRKAKRSLAPRFDLPDMKETKYTVDKRFGMDFKEIELIGSGGFGQVFKAKHRIDGKTYVIKRVKYNNEKAEREVKALAKLDHVNIVHYNGCWDGFDYDPETSDDSLESSDYDPENSKNSSRSKTKCLFIQMEFCDKGTLEQWIEKRRGEKLDKVLALELFEQITKGVDYIHSKKLIHRDLKPSNIFLVDTKQVKIGDFGLVTSLKNDGKRTRSKGTLRYMSPEQISSQDYGKEVDLYALGLILAELLHVCDTAFETSKFFTDLRDGIISDIFDKKEKTLLQKLLSKKPEDRPNTSEILRTLTVWKKSPEKNERHTC [chain 1 S33A H37R T42A]	4.7	3	–
